In publication PMC10160029, “Engineered repeat proteins as scaffolds to assemble multi-enzyme systems for efficient cell-free biosynthesis” (Nature Communications, 2023):

Experiments:
[1] = target: T1, TRAP1-3; test: fluorescence anisotropy of NADH; format: binding; conditions: PBS (150 mM NaCl, 50 mM phosphate) pH 7.4, 25 °C, 1 µM NADH titrated with 0-100 µM TRAP1-3; one-site fit
T1 construct: designed fusion of TRAP1 and TRAP3 TPR modules, synthetic gene in pET-28b(+), E. coli C41, Ni-NTA; His-tag kept in assembly; mass 32,621 (kDa [sic])

[2] = target: FDH1: formate dehydrogenase from Candida boidinii with peptide-1 (MEEVV) fused to its C-terminus (Candida boidinii); test: SEC; each tagged enzyme alone; molecular weight estimated from the elution
[3] = substrate: O=CO; test: purified protein; format: biochemical, [Candida] boidinii; conditions: saturating NAD+, 25 mM sodium phosphate pH 7.0, 30 °C, FDH1 bound alone to TRAP1-3, apparent
[4] = substrate: NC(=O)c1ccc[n+]([C@@H]2O[C@H](COP(=O)(O)OP(=O)(O)OC[C@H]3O[C@@H](n4cnc5c(N)ncnc54)[C@H](O)[C@@H]3O)[C@@H](O)[C@H]2O)c1; test: purified protein; format: biochemical, [Candida] boidinii; conditions: saturating formate, 25 mM sodium phosphate pH 7.0, 30 °C, FDH1 bound alone to TRAP1-3, apparent
[5] = substrate: NC(=O)C1=CN([C@@H]2O[C@H](COP(=O)(O)OP(=O)(O)OC[C@H]3O[C@@H](n4cnc5c(N)ncnc54)[C@H](O)[C@@H]3O)[C@@H](O)[C@H]2O)C=CC1; test: purified protein; format: biochemical, Geobacillus stearothermophilus; conditions: saturating pyruvate, 500 mM ammonium chloride, 25 mM potassium phosphate pH 8.0, 30 °C, AlaDH3 bound alone to TRAP1-3, apparent
[6] = substrate: CC(=O)C(=O)O; test: purified protein; format: biochemical, Geobacillus stearothermophilus; conditions: saturating NADH, 500 mM ammonium chloride, 25 mM potassium phosphate pH 8.0, 30 °C, AlaDH3 bound alone to TRAP1-3, apparent, substrate inhibition fit
[7] = target: the molecule itself; test: SEC; each tagged enzyme alone; molecular weight estimated from the elution

Molecule: NC(=O)C1=CN([C@@H]2O[C@H](COP(=O)(O)OP(=O)(O)OC[C@H]3O[C@@H](n4cnc5c(N)ncnc54)[C@H](O)[C@@H]3O)[C@@H](O)[C@H]2O)C=CC1 [NADH]
- Kd [1]: 34.9 µM

Molecule: FDH1: formate dehydrogenase from Candida boidinii with peptide-1 (MEEVV) fused to its C-terminus (enzyme)
- stoichiometry N [2]: 2

B1: FDH1@TRAP ([Candida] boidinii) (protein)
chain: MKIVLVLYDAGKHAADEEKLYGCTENKLGIANWLKDQGHELITTSDKEGGNSVLDQHIPDADIIITTPFHPAYITKERIDKAKKLKLVVVAGVGSDHIDLDYINQTGKKISVLEVTGSNVVSVAEHVLMTMLVLVRNFVPAHEQIINHDWEVAAIAKDAYDIEGKTIATIGAGRIGYRVLERLVPFNPKELLYYDYQALPKDAEEKVGARRVENIEELVAQADIVTINAPLHAGTKGLINKELLSKFKKGAWLVNTARGAICVAEDVAAALESGQLRGYGGDVWFPQPAPKDHPWRDMRNKYGAGNAMTPHYSGTTLDAQTRYAEGTKNILESFFTGKFDYRPQDIILLNGEYITKAYGKHDKK
notes: FDH with C-terminal peptide-1 tag MEEVV, pET-28b(+), E. coli C41, Ni-NTA, His-tag removed by TEV; mass 45,137 (kDa [sic]); dimer; 5DNA as structure used for illustration
- Km [3]: 2420 ± 1070 µM
- Vmax [3]: 0.95 µmol/min/mg
- kcat [3]: 0.7 ± 0.2 s⁻¹
- kcat/Km [3]: 290 M⁻¹ s⁻¹
- Km [4]: 270 ± 100 µM
- Vmax [4]: 1.23 µmol/min/mg
- kcat [4]: 0.9 ± 0.3 s⁻¹
- kcat/Km [4]: 3500 M⁻¹ s⁻¹

B2: AlaDH3@TRAP (Geobacillus stearothermophilus) (protein)
chain: MKIGIPKEIKNNENRVAITPAGVMTLVKAGHEVYVETEGGAGSGFSDSEYEKAGAADRCRTWRDAWTAEMVLKVKEPLAREFRYFRPGLILFTYLHLAAAERVTKAVVEQKVVGIAYETVQLANGSLPLLTPMSEVAGRMSVQVGAQFLEKPHGGKGILLGGVPGVRRGKVTIIGGGTAGTNAAKIGVGLGADVTILDINAERLRELDDLFGDHVTTLMSNSYHIAECVRESDLVVGAVLIPGAKAKLVTEEMVRSMTPGSVLVDIAIDQGGIFETTDRVTTHDDPTYVKHGVVHYAVANMPGAVPRTSTFALTNVTIPYALQIANKGYRAGCLDNPALLKGINTLDGHIVYEAVAAAHNMPYTDVHSLLHG
notes: AlaDH with C-terminal peptide-3 tag MRRVW, pET-28b(+), E. coli C41, Ni-NTA, His-tag removed by TEV; mass 44,323 (kDa [sic]); hexamer
- Km [5]: 360 ± 70 µM
- Vmax [5]: 94.3 µmol/min/mg
- kcat [5]: 69.9 ± 4.7 s⁻¹
- kcat/Km [5]: 190000 M⁻¹ s⁻¹
- Km [6]: 390 ± 50 µM
- Vmax [6]: 41.3 µmol/min/mg
- kcat [6]: 30.6 ± 1.9 s⁻¹
- kcat/Km [6]: 79000 M⁻¹ s⁻¹

B3: AlaDH3: alanine dehydrogenase from Bacillus stearothermophilus with peptide-3 (MRRVW) fused to its C-terminus (enzyme)
chain: MKIGIPKEIKNNENRVAITPAGVMTLVKAGHDVYVETEAGAGSGFSDSEYEKAGAVIVPNAEDAWTAEMVLKVKEPLAEEFRYFRPGLILFTYLHLAAAEALTKALVEQKVVGIAYETVQLANGSLPLLTPMSEVAGRMSVQVGAQFLEKPHGGKGILLGGVPGVRRGKVTIIGGGTAGTNAAKIAVGLGSDVTILDINAERLRELDDLFGDHVTTLMSNSYHIAECVRESDLVVGAVLIPGAKAPKLVTEEMVRSMTPGSVLVDIAIDQGGIFETTDRVTTHDDPTYVKHGVVHYAVANMPGAVPRTSTFALTNVTIPYALQIANKGYRAACLDNPALLKGINTLDGHIVYEAVAAAHNMPYTDVHSLLHGMRRVW
- stoichiometry N [7]: 6
